This is an account of results in US20050282740.

The data set concerns the target GST-WW-domain of Pin1 (UniProt Q13526).

GST-WW-domain of Pin1, sequence (Q13526 1-54): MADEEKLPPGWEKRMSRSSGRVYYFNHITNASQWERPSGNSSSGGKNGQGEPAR

As for “Cdc25C synthesized in vitro and phosphorylated by Xenopus mitotic extracts”, the “dephosphorylation of precipitated Cdc25C by CIP” value was “CIP failed to dephosphorylate Cdc25C”.
